Assay: soluble fraction after stress (log2 fold change); higher = more stays soluble; pooled small domains, quantitative proteomics
Conditions: stress: 75 degC
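Further: 20 min heating vs room temperature control held 20 min.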

Sequence: HMETLSKVGSTGSEVRQIQTKLKNWGYFSDKVDGIYGEKTRAAVVWFQKKNGLTADGIAGPATLKAMGIYT
- soluble fraction (log2): -0.705

Sequence: HMETLSVRERMTSIISLLNKHEDIEFSKLFNISEGRLGVVVTFLALLELVKESLVDVIQNQPMSKLYIGKK
- soluble fraction (log2): -0.278

Sequence: HMETLTPQEHKVLLLAVKGRTNGEIASELGIAQNTVKNHLAHIYAKMGVGNRTELASEYLRRIH
- soluble fraction (log2): -0.203

Sequence: HMETTEELISKTVPISYADMAALTGILDGVKSARGDIQVDDRTSTIIIHDIQSSIDEMMRLIKILD
- soluble fraction (log2): -1.04

Sequence: HMETTMVEIKAEFTIRNRLDIPAMMEKAGYKDRGEFLSVLEKITGNYNWDRDVKKGDTFMVPSKLA
- soluble fraction (log2): -1.75

Sequence: HMETVPMIDLRGMTQEQAEKAIVGLGLTVGTVDHSSSDMPAGQVWFQSVEPKDEVAPGTKVNIIISTGS
- soluble fraction (log2): 0.0577

Sequence: HMETYNLDVGDSAVLQYQNVSRISVGNPDVLDAIPLDKSQILLTGKATGGAALIVWDSKGMHMEKVMVHPA
- soluble fraction (log2): -0.428

Sequence: HMETYTVSSKDGYANVRNEATVNSDLIAELKNGTLVTKFKEKGEWYYIEFEREDGTPFDYGYIHKSQLK
- soluble fraction (log2): -0.00382

Sequence: HMEVALEVPELRGLSMKQATNTLMASGFEVQKVGSGTIYAQFPLPGERLRTGYAVTIRGKTRDLG
- soluble fraction (log2): -0.345

Sequence: HMEVAPEKVLEALNELPEIYKIVLNLYAVENMSHKEIAKKLGISLGSSKSRLSRGRVMLNTLLNR
- soluble fraction (log2): -1.3

Sequence: HMEVDWLEVEKVIVSSSYSWMENSPKVKLLQEYIGVTADGIYGLGTWGAHRTHAVDLGFINLSYPIP
- soluble fraction (log2): -0.129

Sequence: HMEVEADEFQQLLRSGEYVQALDRARANQDIGLRQQQIVQIARHQAASGIQAGAMGSLASLYQF
- soluble fraction (log2): -0.0286

Sequence: HMEVHLMPGTVLLREYESNEYRVTVTPEGFYDLNGKVFKSLSAVARHITGVNWSGPRFFGVEP
- soluble fraction (log2): -2.81

Sequence: HMEVLSYYGSRGQEVVNIQTKLKQWGYYKGNIDGIFGNLTYQAVREFQRKNGLKVDGIVGPETLAALGLPT
- soluble fraction (log2): -2.64

Sequence: HMEVPQVETEKVEAKLKEAEVLLVKVTDSSLKANATETLAGLRNNLTLQTMDNNGIMAEAEKLLALLRES
- soluble fraction (log2): 0.0802

Sequence: HMEVPTGNHIRRWRKSLDITQVKLSSLSGVAQSIIAKIENETVDPRVSTLRKLVEALSRFENP
- soluble fraction (log2): -1.89

Sequence: HMEVQVGKQVRAFRETLGMTVQQFAERTGFSAALLAQIENRMVSPSLGTLVKIANTFGTTVSSFIG
- soluble fraction (log2): -0.0249

Sequence: HMEVSTDADFEAVGIRAELIPILQKLGFTTVAQLKEVKATKLFNDIPGMRKKLKLDAVQNPTLQEIEGWLK
- soluble fraction (log2): -0.0412

Sequence: HMEVTLEEKLSYVEEYAKVHSHFSFRDLLKKQASKTQIVVTFLAILELMKTGKIQITQEHIFDDIVITAK
- soluble fraction (log2): 0.0631

Sequence: HMEVTYQETLRVLYNAIDKLPPQTKEIILIGLDGKDNNEIAATLNISVNTVKTLKKNAYKTLRELLVD
- soluble fraction (log2): 0.0283

Sequence: HMEWNPEKQHLLENYITNYSRQLNDTGLFYKNLDWNYIFNLVGVDDQEFLMLKIDEIYDESINVY
- soluble fraction (log2): -1.74

Sequence: HMEWNREQLEQIVLQHIRKHGFITRATYTELTGRLKNSALADLKSFAAEGIIKRVGRGNQMHFIVPL
- soluble fraction (log2): -2.35

Sequence: HMEWTDHLAEELRSLAVEGEHLEIIANKLGISPGSARAKLVNLNIYNDYQLAHIERLEADTLQAK
- soluble fraction (log2): -0.349

Sequence: HMEYFDDEELDRYKGRTSDSFTDDEAEEFREVMMTMHPEEVKAWNRSLILRDVAMPDQIKDDYIMLAG
- soluble fraction (log2): -0.141

Sequence: HMEYKYNPADYPYPLNEDIEKVYSAYREKSIGKLEAAVQNLYYTLKQARRDNILSDVKVNEMQQYFLALRN
- soluble fraction (log2): -0.857

Sequence: HMEYNLTLEELNRDLYIRGEIWNVGDVVKTTDGDEGTIIRKGTNYVVFEDLRRVWLHNLEEVK
- soluble fraction (log2): -1.51

Sequence: HMEYREFEAMTIRAIATLPPTQGHVIMLSRFEGLDNKEIALRLNLSLQTVKNTLTQGLKELKNKMRKLP
- soluble fraction (log2): -2.02

Sequence: HMEYSAAYDRELESIFNLTERGKWEEAEAEVGLLLQQYPEDKTLLRISEWVATQKTILREQAIEDRIRS
- soluble fraction (log2): -0.0776

Sequence: HMEYSYKLIDLLVDRFSEEGVDPEEAREYINLFHRFSQGLDPDKRDITKYSWDELYRTVNDKKDS
- soluble fraction (log2): 0.664

Sequence: HMEYTVNHYPEKHRFEVVEDGLTAYVEYRLRGDALDIIHTIVPKNLEGRGIAATLVETAYKYAKEQ
- soluble fraction (log2): -1.27

Sequence: HMFAAIFADDSGFTTRSKRFGPYVEEIAADWQAVKQLSDEDAKQALVPLVKKIELALSTLQQFVSSV
- soluble fraction (log2): -0.166

Sequence: HMFAATGTVNTEGSSLRLRAEASTSSSVLKQLSHGTQVDVLSGLVDGWYQVSYKGTTGYVSGEYLTVTE
- soluble fraction (log2): -0.704

Sequence: HMFADLNPDENYGQVYIRTNTIDNLYQTLLDNKTRIHPNGLLELKPWGQKEFSILDPDKNLLTFGES
- soluble fraction (log2): -0.00771

Sequence: HMFAERLKELRKMRRFSQHALAERLGISQQAVGKWETGKSTPDPATLREIADIFEVSVDLLLGR
- soluble fraction (log2): -1.17

Sequence: HMFDDEELDRFAGVPADAYLPADEDEFREVFYTMRPGEVVEWVRSLELRHIEIPNGIKDEIFMMIR
- soluble fraction (log2): -3.97

Reference: the domain aggregation screens of Martell et al. (2025)
